# Assay results reported in patent publication US9731031B2, “Conjugate comprising oxyntomodulin and an immunoglobulin fragment, and use thereof” (Hanmi Science Co., Ltd., dated 2017).
# Where no end group is shown, it is not given here. [ ]: non-standard residue; d: D form. The star is where a group is joined. Acetyl(2-(4-imidazolyl)) = O=C(Cc1c[nH]cn1)*; Aib = CC(C)(N)C(=O)O
# B1: oxyntomodulin derivative of SEQ ID NO. 11 (peptide)
# peptide: HGEGTFTSDLSRQMEEEAVRLFIEWAAHSQGTFTSDYSRYLDK
# modifications: not fully specified (residue 1, N-terminus); also: N-terminal CA (4-imidazoacetyl), whether it replaces His1 not given here
# B2: oxyntomodulin derivative of SEQ ID NO. 17 (peptide)
# peptide: HSQGTFTSDYSRYLDEEAVRLFIEWIRNTKRNRNNIA
# modifications: not fully specified (residue 1, N-terminus); also: N-terminal CA (4-imidazoacetyl), whether it replaces His1 not given here
# B3: oxyntomodulin derivative of SEQ ID NO. 6 (peptide)
# peptide: HGEGTFTSDLSRQMEEEAVRLFIEWAAHSQGTFTSDYSKYLD
# modifications: not fully specified (residue 1, N-terminus); also: N-terminal CA (4-imidazoacetyl), whether it replaces His1 not given here
# Molecular target: human GLP-1 receptor (human, UniProt P43220)
# Experiment: cell-based or functional assay
row,Binder,"EC50 (nM), cAMP"
1,HSQGTFTSDYSRYLDEEAVELFIEWLMNTK [oxyntomodulin derivative of SEQ ID NO. 13],> 1000 nM
2,H[Aib]QGTFTSDYAKYLDEKRAKEFVQWLMNTC (also: ring marking not visible) [oxyntomodulin derivative of SEQ ID NO. 33],2.2 nM
3,"H[Aib]QGTFTSDYSKYLDEKRAKEFVCWLMNT (also: ring between residues marked, places not visible) [oxyntomodulin derivative of SEQ ID NO. 23]",2.46 nM
4,"[Acetyl(2-(4-imidazolyl))]SQGTFTSDYSKYLDERRAQDFVAWLKNTGPSSGAPPPS (also: N-terminal CA (4-imidazoacetyl), whether it replaces His1 not given here) [oxyntomodulin derivative of SEQ ID NO. 3]",> 1000 nM
5,Y[Aib]QGTFTSDYSKYLDEKRAKEFVQWLMNTC (also: ring marking not visible) [oxyntomodulin derivative of SEQ ID NO. 34],12.5 nM
6,B1,> 1000 nM
7,"H[Aib]QGTFTSDYSKYLDEKRAKEFVQWLMNTC (also: ring between residues marked, places not visible) [oxyntomodulin derivative of SEQ ID NO. 24]",1.43 nM
8,"H[Aib]QGTFTSDYSKYLDEKRAKEFVQWLMNTC (also: ring between residues marked, places not visible) [oxyntomodulin derivative of SEQ ID NO. 25]",1.9 nM
9,"[Acetyl(2-(4-imidazolyl))][Aib]QGTFTSDYSKYLDEKRAKEFVQWLMNTC (also: ring between residues marked, places not visible) [oxyntomodulin derivative of SEQ ID NO. 32]",14.2 nM

# Molecular target: human glucagon receptor (human, UniProt P47871)
# Experiment: cell-based or functional assay
row,Binder,"EC50 (nM), cAMP"
1,HSQGTFTSDYSRYLDEEAVELFIEWLMNTK [oxyntomodulin derivative of SEQ ID NO. 13],> 1000 nM
2,H[Aib]QGTFTSDYAKYLDEKRAKEFVQWLMNTC (also: ring marking not visible) [oxyntomodulin derivative of SEQ ID NO. 33],80.2 nM
3,"H[Aib]QGTFTSDYSKYLDEKRAKEFVQWLMNT (also: ring between residues marked, places not visible) [oxyntomodulin derivative of SEQ ID NO. 28]",0.3 nM
4,"H[Aib]QGTFTSDYSKYLDEKRAKEFVCWLMNT (also: ring between residues marked, places not visible) [oxyntomodulin derivative of SEQ ID NO. 23]",5.8 nM
5,Y[Aib]QGTFTSDYSKYLDEKRAKEFVQWLMNTC (also: ring marking not visible) [oxyntomodulin derivative of SEQ ID NO. 34],1 nM
6,B1,> 1000 nM
7,B2,> 1000 nM
8,B3,> 1000 nM
9,"[Acetyl(2-(4-imidazolyl))]SQGTFTSDLSRQLEEEAVRLFIEWLMNK (also: N-terminal CA (4-imidazoacetyl), whether it replaces His1 not given here) [oxyntomodulin derivative of SEQ ID NO. 8]",> 1000 nM
10,"[Acetyl(2-(4-imidazolyl))]SQGTFTSDYSRYLDEEAVRLFIEWIRNGGPSSGAPPPSK (also: N-terminal CA (4-imidazoacetyl), whether it replaces His1 not given here) [oxyntomodulin derivative of SEQ ID NO. 18]",> 1000 nM
11,"[Acetyl(2-(4-imidazolyl))][Aib]QGTFTSDYSKYLDEKRAKEFVQWLMNTC (also: ring between residues marked, places not visible) [oxyntomodulin derivative of SEQ ID NO. 32]",17.3 nM
